Broadly, the Kd is the free concentration of one partner at which half of the binding sites on the other are occupied at equilibrium, for simple one-to-one binding. The low end stands for tighter binding, the high end for weaker binding.

The source of these data is article PMC8571288.

In data set [1] the target is RPA complex (Homo sapiens) (UniProt P27694+P15927+P35244). In words: smFRET. The note with it: smFRET: 25 mM Tris-HCl pH 7.5, 0.5 mM EDTA, 10% glycerol, 50 or 150 mM KCl (temperature not stated), pull-down: 35 mM Tris-HCl pH 7.5, 10% glycerol, 0.01% ….
Data set [2] deals with CST complex (CTC1-STN1-TEN1) (Homo sapiens) (UniProt Q2NKJ3+Q9H668+Q86WV5). Nature of the data set: smFRET. The conditions noted are these: smFRET: 25 mM Tris-HCl pH 7.5, 0.5 mM EDTA, 10% glycerol, 50 or 150 mM KCl (temperature not stated), pull-down: 35 mM Tris-HCl pH 7.5, 10% glycerol, 0.01% ….
CST complex (CTC1-STN1-TEN1) (Homo sapiens), sequence (Q2NKJ3 whole entry, chain 1 of 3): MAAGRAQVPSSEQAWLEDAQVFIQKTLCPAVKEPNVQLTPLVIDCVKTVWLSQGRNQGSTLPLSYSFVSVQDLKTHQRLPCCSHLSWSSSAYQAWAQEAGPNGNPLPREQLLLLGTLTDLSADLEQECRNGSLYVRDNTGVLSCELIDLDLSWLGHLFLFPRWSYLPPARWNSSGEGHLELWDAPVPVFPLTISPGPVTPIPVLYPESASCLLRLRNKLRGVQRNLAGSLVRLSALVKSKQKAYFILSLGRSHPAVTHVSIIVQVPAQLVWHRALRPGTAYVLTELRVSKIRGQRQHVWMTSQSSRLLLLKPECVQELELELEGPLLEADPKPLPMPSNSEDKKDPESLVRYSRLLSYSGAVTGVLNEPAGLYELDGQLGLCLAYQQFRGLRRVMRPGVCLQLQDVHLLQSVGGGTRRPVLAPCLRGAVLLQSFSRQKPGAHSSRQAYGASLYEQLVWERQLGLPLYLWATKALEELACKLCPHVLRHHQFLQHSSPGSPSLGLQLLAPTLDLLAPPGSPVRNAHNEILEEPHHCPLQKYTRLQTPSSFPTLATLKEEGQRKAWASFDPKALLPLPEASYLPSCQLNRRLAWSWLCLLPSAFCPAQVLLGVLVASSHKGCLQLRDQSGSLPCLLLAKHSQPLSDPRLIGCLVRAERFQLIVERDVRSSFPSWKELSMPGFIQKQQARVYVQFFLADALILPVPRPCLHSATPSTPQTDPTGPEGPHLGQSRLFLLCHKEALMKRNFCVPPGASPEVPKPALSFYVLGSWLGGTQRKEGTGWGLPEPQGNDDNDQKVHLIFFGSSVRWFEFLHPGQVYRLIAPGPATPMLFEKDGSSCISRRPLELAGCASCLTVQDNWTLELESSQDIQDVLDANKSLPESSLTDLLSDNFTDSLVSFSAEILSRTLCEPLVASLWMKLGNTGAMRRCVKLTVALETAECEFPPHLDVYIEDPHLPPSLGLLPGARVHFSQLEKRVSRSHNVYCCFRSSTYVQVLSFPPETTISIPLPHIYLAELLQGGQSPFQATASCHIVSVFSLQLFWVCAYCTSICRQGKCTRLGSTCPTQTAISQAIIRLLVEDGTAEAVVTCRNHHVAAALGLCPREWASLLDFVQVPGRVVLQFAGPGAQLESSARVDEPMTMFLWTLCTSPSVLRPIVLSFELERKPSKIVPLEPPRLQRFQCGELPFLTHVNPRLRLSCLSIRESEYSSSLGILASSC
CST complex (CTC1-STN1-TEN1) (Homo sapiens), sequence (Q9H668 whole entry, chain 2 of 3): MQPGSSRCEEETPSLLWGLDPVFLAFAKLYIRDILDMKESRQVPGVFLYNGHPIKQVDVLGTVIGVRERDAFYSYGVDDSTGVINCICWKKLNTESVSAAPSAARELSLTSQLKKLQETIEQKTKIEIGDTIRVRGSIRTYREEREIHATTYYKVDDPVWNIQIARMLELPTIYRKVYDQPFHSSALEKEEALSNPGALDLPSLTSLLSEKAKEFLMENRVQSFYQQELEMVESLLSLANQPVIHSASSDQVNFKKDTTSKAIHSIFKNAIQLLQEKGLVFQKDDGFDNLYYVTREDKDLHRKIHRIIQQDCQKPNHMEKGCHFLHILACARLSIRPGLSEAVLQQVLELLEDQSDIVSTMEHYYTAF
CST complex (CTC1-STN1-TEN1) (Homo sapiens), sequence (Q86WV5 whole entry, chain 3 of 3): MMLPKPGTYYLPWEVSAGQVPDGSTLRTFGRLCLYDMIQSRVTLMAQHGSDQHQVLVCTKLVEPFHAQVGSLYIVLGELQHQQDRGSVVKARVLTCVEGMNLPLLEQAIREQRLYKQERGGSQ

RPA complex (Homo sapiens), sequence (P27694 whole entry, chain 1 of 3): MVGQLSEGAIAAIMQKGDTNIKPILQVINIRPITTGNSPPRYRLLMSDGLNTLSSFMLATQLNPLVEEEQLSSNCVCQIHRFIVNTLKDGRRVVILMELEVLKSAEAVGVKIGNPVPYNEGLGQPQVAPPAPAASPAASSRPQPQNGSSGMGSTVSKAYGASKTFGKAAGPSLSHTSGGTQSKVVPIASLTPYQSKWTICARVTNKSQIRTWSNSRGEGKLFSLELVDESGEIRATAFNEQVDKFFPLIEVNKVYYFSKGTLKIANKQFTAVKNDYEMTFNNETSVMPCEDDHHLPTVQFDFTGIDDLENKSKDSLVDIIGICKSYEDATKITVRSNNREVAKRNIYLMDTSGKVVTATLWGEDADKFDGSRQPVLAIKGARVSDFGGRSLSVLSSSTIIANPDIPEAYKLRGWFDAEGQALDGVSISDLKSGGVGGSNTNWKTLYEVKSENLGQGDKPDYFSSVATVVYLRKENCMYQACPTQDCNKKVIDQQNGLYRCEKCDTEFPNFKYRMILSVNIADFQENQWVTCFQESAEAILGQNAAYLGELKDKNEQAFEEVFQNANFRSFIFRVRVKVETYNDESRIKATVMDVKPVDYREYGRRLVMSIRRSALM
RPA complex (Homo sapiens), sequence (P15927 whole entry, chain 2 of 3): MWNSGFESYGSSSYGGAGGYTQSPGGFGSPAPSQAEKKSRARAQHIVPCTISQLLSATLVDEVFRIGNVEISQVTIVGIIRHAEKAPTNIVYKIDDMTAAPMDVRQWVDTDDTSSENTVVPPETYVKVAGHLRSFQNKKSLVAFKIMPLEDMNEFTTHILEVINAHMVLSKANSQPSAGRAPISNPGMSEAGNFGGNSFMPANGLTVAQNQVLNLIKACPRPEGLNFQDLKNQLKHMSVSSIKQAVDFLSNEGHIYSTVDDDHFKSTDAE
RPA complex (Homo sapiens), sequence (P35244 whole entry, chain 3 of 3): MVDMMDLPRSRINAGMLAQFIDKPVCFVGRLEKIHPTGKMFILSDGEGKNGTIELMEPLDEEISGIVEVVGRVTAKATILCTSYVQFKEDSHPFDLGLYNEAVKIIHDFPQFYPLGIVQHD

For “ACGCTGCCGAATTCTACCAGTGCCTTGCTAGGACATCTTTGCCCACCTGCAGGTTCACCC / GGGTGAACCTGCAGGTGGGCAAAGA [35-nt ssDNA overhang (Oligo 5+6)]”, the Kd in data set [1] (50 mM KCl, Hill slope 3.14) amounted to 0.12 nM; in data set [1] (150 mM KCl, Hill slope 2.83), 0.11 nM; in data set [2] (50 mM KCl, Hill slope 2.74), 0.12 nM; in data set [2] (150 mM KCl, Hill slope 1.4), 0.29 nM.
